Results on two substances are retold here after PMC7884335.

Holding throughout (details): EMSA: Tris-HCl pH 8.0, MgCl2, NaCl, EDTA, 1 mM DTT, 0.01% NP-40, 50 ug/ml poly[d(I-C)], glycerol (masses given, total volume not stated), room temperature …
A general note: Mobility shift assays separate free from complexed probe on a gel.

The target in series [1] is T1, His-RegX3 (Msm) (Mycobacterium smegmatis MC2 155) (UniProt Q9F868).
T1 sequence: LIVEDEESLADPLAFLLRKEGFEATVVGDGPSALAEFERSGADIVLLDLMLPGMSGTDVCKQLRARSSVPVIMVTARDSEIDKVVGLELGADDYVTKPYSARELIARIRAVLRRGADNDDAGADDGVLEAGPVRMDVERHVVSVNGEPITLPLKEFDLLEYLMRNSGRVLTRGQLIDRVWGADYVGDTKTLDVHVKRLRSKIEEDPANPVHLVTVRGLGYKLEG
Description: EMSA.

For series [2], the system named is His-PrpR (Msm) (Mycobacterium smegmatis MC2 155). Description: BLI.
Series [3] concerns His-RegX3 (Msm) (Mycobacterium smegmatis MC2 155). Description: BLI. (Biolayer interferometry detects binding as a change in optical thickness at a sensor tip.)

Take “AGCCAGTGGCGATAAGACACACAGCCTAACCGCGATTCTTACACAGGATTTGCAAAGGCTGGCCCACCAGGACACAAAACTACGCATATACAGGCTCTTTACGTGCCATTAGGGGCCTTATCGCCACTGGCT (double strand) [PprpR-3]”: in series [1], the binding result is listed as “binds”.
Turning to prpR promoter probe for BLI (Msm), the dissociation constant Kd in series [2] is 53.2 nM; in series [3], 165 nM.

As a reminder, the Kd is a measure of binding affinity in units of concentration. A high value points to a looser complex.
